# From PMC9620997 (Gut Microbes, 2022)
# T1: 6xHis-tagged TssI2 (purified) (Vibrio fluvialis 85003, UniProt A0A1W6EUI3 1-1012)
# T1 sequence: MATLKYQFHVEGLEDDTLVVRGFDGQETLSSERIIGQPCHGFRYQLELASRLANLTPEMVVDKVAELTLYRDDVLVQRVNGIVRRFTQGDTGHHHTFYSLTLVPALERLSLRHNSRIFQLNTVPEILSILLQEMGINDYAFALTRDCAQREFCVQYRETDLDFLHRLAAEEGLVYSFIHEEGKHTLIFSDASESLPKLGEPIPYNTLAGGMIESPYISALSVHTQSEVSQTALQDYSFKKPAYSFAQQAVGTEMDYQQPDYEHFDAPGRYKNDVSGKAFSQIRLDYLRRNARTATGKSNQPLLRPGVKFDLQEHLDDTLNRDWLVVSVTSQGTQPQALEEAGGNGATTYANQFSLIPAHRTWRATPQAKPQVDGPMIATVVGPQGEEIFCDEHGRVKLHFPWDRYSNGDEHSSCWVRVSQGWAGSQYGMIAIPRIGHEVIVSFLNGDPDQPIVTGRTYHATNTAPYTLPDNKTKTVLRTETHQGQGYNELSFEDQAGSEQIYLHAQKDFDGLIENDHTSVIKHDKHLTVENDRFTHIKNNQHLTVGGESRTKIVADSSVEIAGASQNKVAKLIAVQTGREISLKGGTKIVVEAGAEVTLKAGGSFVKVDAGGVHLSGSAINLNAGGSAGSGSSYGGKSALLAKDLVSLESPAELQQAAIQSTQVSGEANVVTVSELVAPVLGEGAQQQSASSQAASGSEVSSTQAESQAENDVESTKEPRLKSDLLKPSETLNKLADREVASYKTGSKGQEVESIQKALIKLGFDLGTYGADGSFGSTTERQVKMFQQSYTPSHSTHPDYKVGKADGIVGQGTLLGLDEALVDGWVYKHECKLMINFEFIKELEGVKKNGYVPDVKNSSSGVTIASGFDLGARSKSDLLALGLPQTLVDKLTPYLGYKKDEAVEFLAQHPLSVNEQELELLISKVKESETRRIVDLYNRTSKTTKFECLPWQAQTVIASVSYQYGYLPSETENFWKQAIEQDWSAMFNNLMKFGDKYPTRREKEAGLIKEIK
# Biological target: T1, 6xHis-tagged TssI2 (purified)
# Test: ITC
binder,measurement,value
6xHis-tagged TsiI2^19-127 (purified) (domain or fragment) FPTNEVYAYLDITSFNSSLIQKAARGQKHFSDLKIPNPVISKDTILIESEYWKYEMQFVKEDDSGIHVCFVDKAKWGTYDTQTPMIIRKYADEYVAIKMNSDVCEDFAK,Kd,1.07 nM
